Kd data for one molecule are collected here from article PMC12607895, “CD46 is a cellular receptor for species D human adenovirus” (mBio, 2025).

The assay addresses HAdV-C5 virion (human adenovirus C5 (HAdV-C5), UniProt P04133 1-952; P12538 1-571; P11818 1-581, whole virion; only the major capsid proteins listed, minor/core proteins and DNA not named). The experiment in a line: SPR; Biacore T200; CD46 or CAR amine-coupled to a CM5 chip (2,390-2,640 RU CD46, 2,380-2,870 RU CAR); whole virions as analyte, twofold series 50-12.5 µg/mL, 120 s at 30 µL/min; 25°C, HBS-EP+ (10 mM HEPES, 150 mM NaCl, 3 mM EDTA, 0.005% P20, pH 7.4); performed once. To be noted: both partners purified. On the technique in general: In SPR one partner is held on a chip, and binding of the other changes the refractive index at the surface.

B1: coxsackievirus and adenovirus receptor (CAR) (receptor)
chain: LSITTPEEMIEKAKGETAYLPCKFTLSPEDQGPLDIEWLISPADNQKVDQVIILYSGDKIYDDYYPDLKGRVHFTSNDLKSGDASINVTNLQLSDIGTYQCKVKKAPGVANKKIHLVVLVKPSGARCYVDGSEEIGSDFKIKCEPKEGSLPLQYEWQKLSDSQKMPTSWLAEMTSSVISVKNASSEYSGTYSCTVRNRVGSDQCLLRLNVVPPSNKAGLIAGAIIGTLLALALIGLIIFCCRKKRREEKYEKEVHHDIREDVPPPKSRTSTARSYIGSNHSSLGSMSPSNMEGYSKTQYNQVPSEDFERTPQSPTLPPAKVAAPNLSRMGAIPVMIPAQSKDGSIV
notes: coxsackievirus and adenovirus receptor (CAR), coupled to the CM5 sensor chip; also called CXADR
Take B1: binding was put at a Kd of 1.1 pM.

The Kd is the equilibrium constant for the complex coming apart. Low readings indicate a tighter complex, high ones a looser complex.
